Assay results published in publication PMC5095173, “Disulfide-activated protein kinase G Iα regulates cardiac diastolic relaxation and fine-tunes the Frank–Starling response” (Nature Communications, 2016).

B1: Matr3 pT150 (protein, UniProt P43244 2-845, looked up)
Matrin-3: SKSFQQSSLGRDSQGHGRDLSAAGIGLLAAATQSLSMPASLGRMNQGTARLASLMNLGMSSSLNQQGAHSALSSASTSSHNLQSIFNIGSRGPLPLSSQHRGDTDQASNILASFGLSARDLDELSRYPEDKITPENLPQILLQLKRRRTEEGPTLSYGRDGRSATREPPYRVPRDDWEEKRHFRRDSFDDRGPSLNPVLDYDHGSRSQESGYYDRMDYEDDRLRDGERCRDDSFFGETSHNYHKFDSEYERMGRGPGPLQERSLFEKKRGAPPSSNIEDFHGLLPKGYPHLCSICDLPVHSNKEWSQHINGASHSRRCQLLLEIYPEWNPDNDTGHTMGDPFMLQQSTNPAPGILGPPPPSFHLGGPAVGPRGNLGAGNGNLQGPRHMQKGRVETSRVVHIMDFQRGKNLRYQLLQLVEPFGVISNHLILNKINEAFIEMATTEDAQAAVDYYTTTPALVFGKPVRVHLSQKYKRIKKPEGKPDEKFDQKQELGRVIHLSNLPHSGYSDSAVLKLAEPYGKIKNYILMRMKSQAFIEMETREDAMAMVDHCLKKALWFQGRCVKVDLSEKYKKLVLRIPNRGIDLLKKDKSRKRSYSPDGKESPSDKKSKTDGAQKTENPAEGKEQEEKSGEDGEKDTKDDQTEQEPSMLLESEDELLVDEEEAAALIESGSSVGDETDLANLGDVSSDGKKEPSDKAVKKDASATSKKKLKKVDKIEELDQENEAALENGIKNEENTEPGAESAENADDPNKDASDNSDGQNDENKEDYTIPDEYRIGPYQPNVPGGIDYVIPKTGFYCKLCSLFYTNEEVAKNTHCSSLPHYQKLKKFLNKLAEERRQKKES
modifications: phosphorylated at T150
B2: Matr3 pS188 (protein, UniProt P43244 2-845, looked up)
Matrin-3: B1 Matrin-3
modifications: phosphorylated at S188
B3: Lrpprc pS656 (protein, UniProt Q5SGE0 78-1392, looked up)
Leucine-rich PPR …: SGSQFDWALMRLDNSVRRTGRITKGLLQKVFESTCRSGSPGSNQALLLLRSCGSLLPELSLAERTEFAHKIWDKLQQLGTVYDVSHYNALLKVYLQNEYRFSPTDFLAKMEGANIQPNRVTYQRLIAAYCSVGDIEGASKILGFMKTRDLPITEAVFSALVTGHARAGDMESAENILTVMKQAGIEPGPDTYLALLNAHAEKGDIDHVKQILEKVEKSDHYFMDRDFLQIIVSFSKAGYPQYVSEILEKITYERRSIPDAMNLILLLVTEKLEDTAFQVLLALPLARDETSSSFGSFFLRHCVTMDTPAEKLIDYCKRLRDAKVHSSSLQFTLHCALQANKTALAKAVMEALRDEGFPIRTHYFWPLLVGHQKTKNVQGIIDILKIMKEMGVDPDQETYINYVFPCFGSVQSARAALQENKCLPKSTTFAQAEVRNEAINGNLQNILSFLESNALPFSFNSLRGSLILGFRRSMNIDLWSKITELLYKDDRYCQKPPGPTEAVGYFLYNLIDSMSDSEVQAKEERLRQYFHQLREMNVKVSENIYKGICNLLDNYHVPELIKDVKVLVDREKIDSRKTSQFTSSDLESTLEKLKAEGHPVGDPLKQLILLLCSEENMQKALEVKAKYESDMVIGGYAALINLCCRHDNAEDALNLKQEFDRLDPSAVLDTAKYVALVKVLGKHGRVQDAINILKEMKEKDVVIKDAAVLSFFHILNGAALRGEIETVKQLHEAIVTLGLAKPSSNISFPLVTVHLEKDDLPAALEASIACHEKYKVLPRIHDVLCKLIEKGETDLIQKAMDFVSQEQGEMSMLYDLFFAFLQTGNYKEAKKIIETPGIRARPTRLQWFCDRCIANNQVETLEKLVELTEKLFECDRDQMYYNLLKLYKISGDWQRADAVWNKMQEENLIPRERTLRLLAGILKTSNQEVPFDVPELWFGDDRSSLSSSSPSAGDTVTEKMLLSDCRLKKSKDAYNIFLKAEKQDVVFSSEAYSTLVGLLLSKDDFTRAMHVKDFAETHIKGFTLNGAASSLLIIAQVRRDYLKVALETLKAALDLEQVPSELAVTRLIQALALQGDVKSIETIQKMVKGLDAIELSRMVFINNIALAQMKNNEIDAAIENIEHMLASENQTVEHQYFGLSYLFRKVIEEQMEPALEKLSIMSERLANQFALYKPVTDLFLQLVDSGKVDEARALLERCGAIAEQTSILSVFCLRTSQKPKKAPVLKTLLELIPELRENDRVYSCSMKSYVADKDVASAKALYEHLTAKNMKLDDLFLKRYASLLKDVGEPVPFTEPPESFGFYIKQLKEARENPS
modifications: phosphorylated at S656
B4: Gpsm1 pS567 (protein, UniProt Q9R080 1-673, looked up)
G-protein-signaling modulator …: MASPAPPAAEELPGPAARRLYSRMEASCLELALEGERLCKAGDFKAGVAFFEAAVQVGTEDLKTLSAIYSQLGNAYFYLKEYARALQFHKHDLLLARTIGDRMGEAKASGNLGNTLKVLGRFDEAIVCCQRHLDIAQEQGDKVGEARALYNIGNVYHAKGKQLSWNAAQDPGHLPPDVRETLHRASEFYERNLSLVKELGDRAAQGRAYGNLGNTHYLLGNFTEATTFHKERLAIAKEFGDKAAERRAYSNLGNAHIFLGRFDVAAEHYKKTLQLSRQIRDQAVEAQACYSLGNTYTLLQDYERAAEYHLRHLVIAQELADRVGEGRACWSLGNAYVSMGSPAQALTFAKKHLQISQEIGDRNGELTARMNIAHLQLALGRLTSPAAAEKPDLAGYEAQGARPKRTQRLSAETWDLLRLPLDREQNGETHHTGDWRGPSRDSLPLPMRSRKYQEGPDAIERRPREGSHSPLDSADVRVQVPRTGIPRAPSSDEECFFDLLSKFQSSRMDDQRCPLEEGQAGAAEATAAPTLEERAAQPSVTASPQTEEFFDLIASSQSRRLDDQRASVGSLPGLRITLNNVGHLRGDGDPQEPGDEFFNMLIKYQSSRIDDQRCPPPDVLPRGPTMPDEDFFSLIQRVQAKRMDEQRVDLAGSPDQEASGLPDPRQQCPPGAS
modifications: phosphorylated at S567
B5: Fhl2 pS255 (protein, UniProt O70433 1-279, looked up)
Four and a half LIM domains …: MTERFDCHHCNESLYGKKYILKEENPHCVACFEELYANTCEECGTPIGCDCKDLSYKDRHWHEGCFHCSRCGSSLVDKPFAAKEEQLLCTDCYSNEYSSKCQECKKTIMPGTRKMEYKGSSWHETCFTCQRCQQPIGTKSFIPKENQNFCVPCYEKQYALQCVQCKKPITTGGVTYREQPWHKECFVCTACKKQLSGQRFTARDEFPYCLTCFCDLYAKKCAGCTNPISGLGGTKYISFEERQWHNDCFNCKKCSLSLVGRGFLTERDDILCPDCGKDI
modifications: phosphorylated S255
B6: Jph2 pS240 (protein, UniProt Q2PS20 1-692, looked up)
Junctophilin-2: MSGGRFDFDDGGAYCGGWEGGKAHGHGLCTGPKGQGEYSGSWNFGFEVAGVYTWPSGNTFEGYWSQGKRHGLGIETKGRWLYKGEWTHGFKGRYGIRQSTNSGAKYEGTWNNGLQDGYGTETYADGGTYQGQFTNGMRHGYGVRQSVPYGMAVVVRSPLRTSLSSLRSEHSNGTVAPDSPAADGPTLPLPPVPRGGFALSLLATAEAARPPGLFTRGALLGRLRRSESRTSLGSQRSRLSFLKSELSSGASDAASTGSLAEGAEGPDDAAAPFDADIDATTTETYMGEWKNDKRSGFGVSERSSGLRYEGEWLDNLRHGYGRTTLPDGHREEGKYRHNVLVKGTKRRVLPLKSNKVRQKVEHGVEGAQRAAAIARQKAEIAASRTSHAKAKAEAAEQAALAANQESNIARTLAKELAPDFYQPGPEYQKRRLLQEILENSESLLEPRERGPGTGLPERPRESPQLHERETPQPEGGPPSPAGTPPQPKRPRPGSSKDGLLSPGAWNGEPGGEGSRPATPSDGAGRRSPARPASEHMAIEALQPPPAPSREPEVALYRGYHSYAVRTGPPEPPPLEDEPEPEPEVPRSDSEPPSPVSATVQEEESPAPRSRVPAKPATLEPKPIVPKAEPKAKARKTEARGLSKAGAKKKGRKEVAQEAEAEVEVEEVPNTVLICMVILLNIGLAILFVHLLT
modifications: phosphorylated at S240
B7: Rrad pS25 (protein, UniProt P55043 1-306, looked up)
GTP-binding protein RAD: MTLNGGSGAGGSRSAGRERDRRRGSTPWGPAPPLHRRSMPVDERDLQAALTPGSLAATAAGTRTQGQRLDWPEGSSDSLSSGDSGSEDGVYKVHAAGAPGVGKSALARIFGGVEDGPEAEAAGHTYDRSITVDGEEASLMVYDIWEQDGGCWLPGHCMAMGDAYVIVYSITDKGSFEKASELRVQLRARRQTDVPIILVGNKSDLVRSREVSVDEGRACAEVFDCKFIETSAALHHNVQALFEGVVRQIRLRRDSKEDNARRQAGTRRRESLGKKAKLFLGRIVARNSRKMAFLAKSKSCHDLSVL
modifications: phosphorylated at S25
B8: Hmga1 pS36 (protein, UniProt P17095 2-107, looked up)
High mobility group protein …: SESGSKSSQPLASKQEKDGTEKRGRGRPRKQPPVSPGTALVGSQKEPSEVPTPKRPRGRPKGSKNKGAAKTRKVTTAPGRKPRGRPKKLEKEEEEGISQESSEEEQ
modifications: phosphorylated S36
B9: Hspb1 pS9 (protein, UniProt P14602 1-209, looked up)
Heat shock protein beta-1: MTERRVPFSLLRSPSWEPFRDWYPAHSRLFDQAFGVPRLPDEWSQWFSAAGWPGYVRPLPAATAEGPAAVTLAAPAFSRALNRQLSSGVSEIRQTADRWRVSLDVNHFAPEELTVKTKEGVVEITGKHEERQDEHGYISRCFTRKYTLPPGVDPTLVSSSLSPEGTLTVEAPLPKAVTQSAEITIPVTFEARAQIGGPEAGKSEQSGAK
modifications: phosphorylated S9
B10: Hspb6 pS16 (protein, UniProt P97541 1-162, looked up)
Heat shock protein beta-6: MEIRVPVQPSWLRRASAPLPGFSTPGRLFDQRFGEGLLEAELASLCPAAIAPYYLRAPSVALPTAQVPTDPGYFSVLLDVKHFSPEEISVKVVGDHVEVHARHEERPDEHGFIAREFHRRYRLPPGVDPAAVTSALSPEGVLSIQATPASAQASLPSPPAAK
modifications: phosphorylated at S16

The molecules below were run on PKGIα (analogue-sensitive C42S/M438G), cGMP-activated (assay: Chemical genetic phosphoproteomic screen, cGMP-activated PKGIα C42S/M438G versus unactivated control). Settings: control = PKGIα C42S/M438G.
Assay type: biochemical, human PKGIα; substrates in rat heart homogenate
Outline: (§1)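 Substrates in rat left-ventricle homogenate (20 mg ml) are labelled by engineered Met438Gly PKGIα given a bulky N6-alkylated ATPγS analogue, either as disulfide-activated M438G (oxidized, DTT-free) or as cGMP-activated C42S/M438G. Covalent capture and LC–MS/MS identify sites relative to unactivated kinase.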
For B1, the “log2 fold change cGMP vs Control” value was 3.582.
B2 was tested, and the “log2 fold change cGMP vs Control” value was 1.38.
For B3, the “log2 fold change cGMP vs Control” value was 4.57.
With B4 the “log2 fold change cGMP vs Control” value was 2.926.
B5 was tested, and the “log2 fold change cGMP vs Control” value was 3.732.
In the case of B6, the “log2 fold change cGMP vs Control” value is reported as 0.1615.
In the case of B7, the “log2 fold change cGMP vs Control” value is reported as -0.2363.
For B8, the “log2 fold change cGMP vs Control” value was 4.39.
B9 was tested, and the “log2 fold change cGMP vs Control” value was 1.482.
In the case of B10, the “log2 fold change cGMP vs Control” value is reported as 2.607.

What follows are molecules tested on PKGIα (analogue-sensitive M438G), disulfide-activated (assay: Chemical genetic phosphoproteomic screen, disulfide-activated PKGIα M438G versus unactivated control). Settings: control = PKGIα C42S/M438G.
Assay type: biochemical, human PKGIα; substrates in rat heart homogenate
Outline: as §1
For B1, the “log2 fold change Disulfide vs Control” value was 1.381.
For B2, the “log2 fold change Disulfide vs Control” value was -0.9169.
For B3, the “log2 fold change Disulfide vs Control” value was 0.7702.
With B4 the “log2 fold change Disulfide vs Control” value was 1.042.
In the case of B5, the “log2 fold change Disulfide vs Control” value is reported as 1.662.
With B6 the “log2 fold change Disulfide vs Control” value was 0.2694.
In the case of B7, the “log2 fold change Disulfide vs Control” value is reported as -0.2493.
B8 was tested, and the “log2 fold change Disulfide vs Control” value was 1.6764.
For B9, the “log2 fold change Disulfide vs Control” value was -0.3759.
B10 was tested, and the “log2 fold change Disulfide vs Control” value was 1.245.
